Columns and labels:
[1] = target: T1, Killer cell lectin like receptor g2 (human, UniProt A4D1S0 1-409); assay: protein array
T1 construct: on protein array; also called KLRG2
T1 sequence: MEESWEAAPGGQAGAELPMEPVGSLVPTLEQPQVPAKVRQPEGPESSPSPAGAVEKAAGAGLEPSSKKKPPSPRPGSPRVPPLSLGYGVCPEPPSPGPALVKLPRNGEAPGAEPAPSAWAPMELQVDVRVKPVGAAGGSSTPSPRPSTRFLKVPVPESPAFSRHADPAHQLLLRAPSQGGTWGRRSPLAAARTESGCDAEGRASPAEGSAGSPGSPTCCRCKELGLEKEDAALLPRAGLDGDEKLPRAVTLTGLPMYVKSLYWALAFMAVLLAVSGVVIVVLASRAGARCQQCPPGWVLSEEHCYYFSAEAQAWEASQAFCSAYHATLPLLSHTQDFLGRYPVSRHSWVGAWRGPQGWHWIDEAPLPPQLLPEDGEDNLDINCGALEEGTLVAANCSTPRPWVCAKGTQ

[2] = target: T2, tripartite motif containing 35, transcript variant 1 (human, UniProt Q9UPQ4 1-493, limits assumed); assay: protein array
T2 construct: on protein array; also called TRIM35
T2 sequence: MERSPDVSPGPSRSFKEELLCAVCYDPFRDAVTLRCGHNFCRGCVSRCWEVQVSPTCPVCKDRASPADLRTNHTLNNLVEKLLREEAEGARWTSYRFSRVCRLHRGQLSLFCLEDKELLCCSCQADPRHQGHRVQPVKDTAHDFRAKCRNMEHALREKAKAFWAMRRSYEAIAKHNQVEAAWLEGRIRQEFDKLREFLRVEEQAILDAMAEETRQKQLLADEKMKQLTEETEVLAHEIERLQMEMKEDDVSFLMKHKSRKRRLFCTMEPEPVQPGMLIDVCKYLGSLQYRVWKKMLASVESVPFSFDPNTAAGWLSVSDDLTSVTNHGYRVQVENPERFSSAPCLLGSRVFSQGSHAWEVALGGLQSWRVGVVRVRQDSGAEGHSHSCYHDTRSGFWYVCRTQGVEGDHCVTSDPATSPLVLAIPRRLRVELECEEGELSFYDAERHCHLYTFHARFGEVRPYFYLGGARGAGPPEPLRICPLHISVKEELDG

FMR1 autosomal homolog 2 = target: T3, FMR1 autosomal homolog 2 (human, UniProt P51116 1-673); assay: protein array
T3 construct: on protein array; also called FXR2
T3 sequence (P51116 whole entry Q252H): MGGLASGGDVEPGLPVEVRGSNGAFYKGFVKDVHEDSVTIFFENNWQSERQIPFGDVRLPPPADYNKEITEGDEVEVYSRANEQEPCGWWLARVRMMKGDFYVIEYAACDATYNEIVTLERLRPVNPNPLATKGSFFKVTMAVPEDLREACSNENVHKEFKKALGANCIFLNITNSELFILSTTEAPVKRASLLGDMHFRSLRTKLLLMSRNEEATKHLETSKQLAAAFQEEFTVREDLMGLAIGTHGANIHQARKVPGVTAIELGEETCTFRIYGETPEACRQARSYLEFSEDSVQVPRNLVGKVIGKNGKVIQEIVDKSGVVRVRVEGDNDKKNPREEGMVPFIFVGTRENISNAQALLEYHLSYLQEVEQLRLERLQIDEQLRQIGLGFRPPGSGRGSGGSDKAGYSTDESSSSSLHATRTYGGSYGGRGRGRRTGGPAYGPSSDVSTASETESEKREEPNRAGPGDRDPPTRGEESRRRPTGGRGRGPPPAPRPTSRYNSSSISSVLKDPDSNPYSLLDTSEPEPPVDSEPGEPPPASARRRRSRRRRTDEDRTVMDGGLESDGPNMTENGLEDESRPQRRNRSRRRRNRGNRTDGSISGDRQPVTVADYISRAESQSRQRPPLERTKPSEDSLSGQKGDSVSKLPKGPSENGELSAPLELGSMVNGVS

annexin A1 = target: T4, annexin A1 (human, UniProt P04083 2-346); assay: protein array, with experimental replicate
T4 construct: on protein array; also called ANXA1
T4 sequence: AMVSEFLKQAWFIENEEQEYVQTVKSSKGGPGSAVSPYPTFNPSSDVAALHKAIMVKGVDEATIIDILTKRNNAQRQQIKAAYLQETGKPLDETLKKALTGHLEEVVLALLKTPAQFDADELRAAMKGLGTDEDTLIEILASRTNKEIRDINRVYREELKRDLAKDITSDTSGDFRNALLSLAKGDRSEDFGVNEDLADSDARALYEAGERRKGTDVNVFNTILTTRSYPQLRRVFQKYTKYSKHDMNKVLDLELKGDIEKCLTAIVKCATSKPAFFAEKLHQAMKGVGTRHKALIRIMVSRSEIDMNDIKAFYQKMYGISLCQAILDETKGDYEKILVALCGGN

[3] = target: T5, family with sequence similarity 177 member A1, transcript variant 2 (human, UniProt Q8N128 1-213); assay: protein array
T5 construct: on protein array; also called FAM177A1
T5 sequence: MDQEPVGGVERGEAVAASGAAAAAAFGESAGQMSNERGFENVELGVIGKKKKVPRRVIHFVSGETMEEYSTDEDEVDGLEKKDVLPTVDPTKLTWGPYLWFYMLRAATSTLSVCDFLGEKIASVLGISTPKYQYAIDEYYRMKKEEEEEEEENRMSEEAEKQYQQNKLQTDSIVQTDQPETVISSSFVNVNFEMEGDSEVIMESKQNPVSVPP

[4] = target: T6, methyltransferase like 21C (human, UniProt Q5VZV1 1-264); assay: protein array
T6 construct: on protein array; also called METTL21C
T6 sequence (Q5VZV1 whole entry): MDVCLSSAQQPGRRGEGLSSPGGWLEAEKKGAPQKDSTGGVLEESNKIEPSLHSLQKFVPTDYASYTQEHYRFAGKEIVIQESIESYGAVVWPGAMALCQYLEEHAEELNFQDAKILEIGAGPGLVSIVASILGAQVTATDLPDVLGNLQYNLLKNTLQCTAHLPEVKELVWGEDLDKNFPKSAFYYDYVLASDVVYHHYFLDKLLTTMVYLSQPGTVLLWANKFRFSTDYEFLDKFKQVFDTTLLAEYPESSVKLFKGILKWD

[5] = target: T7, olfactory receptor family 6 subfamily Q member 1 (gene/pseudogene) (human, UniProt Q8NGQ2 1-317); assay: protein array
T7 construct: on protein array; also called OR6Q1
T7 sequence: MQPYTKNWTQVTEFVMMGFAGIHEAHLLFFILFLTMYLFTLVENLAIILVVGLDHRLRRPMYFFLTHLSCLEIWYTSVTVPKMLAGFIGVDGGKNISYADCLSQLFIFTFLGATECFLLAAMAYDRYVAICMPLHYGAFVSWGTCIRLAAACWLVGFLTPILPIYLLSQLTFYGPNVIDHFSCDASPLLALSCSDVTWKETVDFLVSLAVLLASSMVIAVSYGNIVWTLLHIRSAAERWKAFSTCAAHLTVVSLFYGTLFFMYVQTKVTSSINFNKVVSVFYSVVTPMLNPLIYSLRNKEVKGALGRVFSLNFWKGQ

[6] = target: T8, DIX domain containing 1, transcript variant 2 (human, UniProt Q155Q3 220-683)
T8 construct: also called DIXDC1
T8 sequence: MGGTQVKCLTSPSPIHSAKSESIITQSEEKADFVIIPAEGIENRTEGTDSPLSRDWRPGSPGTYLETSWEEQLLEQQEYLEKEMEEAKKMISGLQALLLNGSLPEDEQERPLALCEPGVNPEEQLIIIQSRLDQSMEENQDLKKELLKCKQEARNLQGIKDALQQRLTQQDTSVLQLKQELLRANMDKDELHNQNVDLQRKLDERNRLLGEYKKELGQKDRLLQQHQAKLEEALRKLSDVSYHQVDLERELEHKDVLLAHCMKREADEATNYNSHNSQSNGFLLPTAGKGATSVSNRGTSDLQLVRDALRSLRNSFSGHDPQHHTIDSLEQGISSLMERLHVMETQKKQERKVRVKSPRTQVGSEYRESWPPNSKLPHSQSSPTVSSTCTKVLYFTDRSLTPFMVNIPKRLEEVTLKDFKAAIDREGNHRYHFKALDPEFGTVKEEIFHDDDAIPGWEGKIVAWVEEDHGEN

[7] = target: T9, Jupiter microtubule associated homolog 2 (human, UniProt Q9H910 1-190)
T9 construct: also called HN1L
T9 sequence: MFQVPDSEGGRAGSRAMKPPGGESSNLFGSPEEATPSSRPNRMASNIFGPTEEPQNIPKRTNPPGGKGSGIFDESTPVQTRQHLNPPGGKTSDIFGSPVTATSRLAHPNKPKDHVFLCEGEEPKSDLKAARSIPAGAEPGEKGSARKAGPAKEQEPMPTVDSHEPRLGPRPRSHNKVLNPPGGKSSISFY

B1: TLUA1001 (antibody, V domains shown)
VH: PLQLQESGPGLVKPSETLSLTCSVSGGSIRSSAPFWGWIRQPPGKGLEWIGNIYYNGDTSYSPSLENRVTLFVDTSKNQFSLNLTSVTAADTAVYYCGRIMTPSIDLWGQGKLVTVSS
VL: EIVLTQSPGTLSLSPGERATLSCRASQSISSTYLVWYQQKPGQAPRLLIYAASYRATGIPDRFSGSGSGTDFILTISRLEPEDFAVYYCQQYGSSLTFGGGTKVEIKR
notes: VH/VL tied via antigen in summary, not by name in this stretch
**Q.** Does B1 bind [1]?
**A.** binds

**Q.** Does B1 bind [2]?
**A.** binds

**Q.** Does B1 bind (FMR1 autosomal homolog 2)?
**A.** binds

B2: TLUA1004 (antibody, V domains shown)
VH: EVQLVESGGGLVQTGGSLRLSCSASGFTFNNYWMHWVRQAPGKGLLWLSRINTDGSRGHYDDSVQGRFTISRDNAKQTVYLQMDGLRAEDTAVYFCARDGYDFRAFDHWGQGVLVTVSS
VL: DIQMTQSPSSLSASVGDKVTMTCRASQFISVYVNWYQQKPGKAPKLLIYTASSLESGVSSRFSGGGSGTDFTLTIRSLQPEDFAIYYCQQTYSTPWTFGPGTRVEIKR
notes: as for B1
**Q.** Does B2 bind (annexin A1)?
**A.** binds

B3: TLUA1016 (antibody, V domains shown)
VH: EVQLLESGGALVQPGGSLRLSCAVSGLTFNRFAMTWVRQAPGKGLEWVSHIGGSGGYTYYADSVKGRFTISRDNSKNTLYLQMNSLRAEDTAVYHCVKLKGIGAMWTYAMDVWGQGTTVTVSS
VL: QSVLTQPPSVSGAPGQRVTIPCTGSSSNLGAGYAVHWYQQLPATTPKLLIYANSSRPSGVPDRFSGSRSDTSASLAITGLQAEDEADYYCQSYDSSLSGYVFGTGTWVTVLS
notes: as for B1
**Q.** Does B3 bind [3]?
**A.** binds

B4: TLUS1003 (antibody, V domains shown)
VH: QVHLVQSGSEFKKPGASVKISCKTSGYTFTNYAMNWVRQAPGQGLEWVGWINTVTGIPGYAQGFTGRFIISLDTSGRTSYLQINSLQAEDTAVYYCARSGGFGWSRDLDYWGQGTLVTVSS
VL: DIVLTQSPLSLPVTPGEPASISCRSSQSLLHSNGVYYLDWYLLKPGQSPQLVIYMGSSRASGVPDRFSGSGSGTDFRLKISRVEAEDVGIYYCMQALQTPWTFGQGTKVEIKR
notes: as for B1
**Q.** Does B4 bind [4]?
**A.** binds

B5: TBLA1010 (antibody, V domains shown)
VH: EVQLVESGGGLVQPGRSLRLSCAASGFPFGDYAMHWVRQAPGKGLEWVSGIGWDSGGIGYADSVKGRFTISRDIAKNSLYLEINSLRPDDTALYYCAKAAATLPYFRFAMDVWGQGTPVTVSS
VL: EIVLTQSPGTLSLSPGERATLSCRASQSVSSSYLAWYQQKPGQAPRLLIFGASTRASGIPDRFSGRGSGTEFTLTISRLEPEDFAVYYCQQYDSSPFTFGPGTKVEIKR
notes: VH/VL only
**Q.** Does B5 bind [5]?
**A.** binds

B6: TTES1001 (antibody, V domains shown)
VH: PVQLVQSGAEVKKPGSSVQVSCKGSGGTFSEYGISWLRQAPGQGLEWIGGIIPVLGIPNYAQKFRGRVTITADESTGSAYMEVSSLRSEDTAVYYCAREGLRLARGWFHPWGQGTLVTVTS
VL: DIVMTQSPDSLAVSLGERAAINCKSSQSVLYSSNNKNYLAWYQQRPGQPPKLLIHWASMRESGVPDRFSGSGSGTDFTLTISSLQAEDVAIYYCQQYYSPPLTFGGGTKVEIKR
**Q.** Does B6 bind [6]?
**A.** binds

B7: TTES1010 (antibody, V domains shown)
VH: EVQLVESGGGLVQPGGSLRLSCAASGFTFSSYSMNWVRQAPGKGLEWVSYISSSSSTIYYADSVKGRFTISRDNAKNSLYLQMNSLRAEDTAVYYCASLLGGDPDYWGQGTLVTVSS
VL: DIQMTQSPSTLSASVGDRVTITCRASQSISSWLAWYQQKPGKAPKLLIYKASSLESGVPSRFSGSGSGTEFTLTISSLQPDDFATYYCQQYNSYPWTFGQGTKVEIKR
**Q.** Does B7 bind [6]?
**A.** binds

B8: TTES1011 (antibody, V domains shown)
VH: PVTLRESGPALVKPTQTLTLTCTFSGFSLSTSGMCVSWIRQPPGKALEWLARIDWDDDKYYSTSLKTRLTISKDTSKNQVVLTMTNMDPVDTATYYCARMQIVATTQTYYYYYGMDVWGQGTTVTVSS
VL: PAVLTQPPSVSGAPGQRVTISCTGSSSNIGAGYDVHWYQQLPGTAPKLLIYGNSNRPSGVPDRFSGSKSGTSASLAITGLQAEDEADYYCQSYDSSLSGSGVFGGGTKLTVLG
**Q.** Does B8 bind [7]?
**A.** binds
